Assay results as given in patent US20030129189A1, “Tumor necrosis factor-gamma” (priority 1994, published 2003).
Where two headings read alike, the source gives them in different places.

What was measured:
[1] = system: HUVEC cells; assay: Induction of TNF-gamma-beta mRNA in HUVEC cells; assay type: cell-based, human; conditions: for time of peak in expression of TNF-gamma-beta mRNA: after treatment; for TNF-gamma-beta mRNA level: stimulated HUVEC cells
Description: More TNF-gamma-beta mRNA was detected than that of TNF-gamma-alpha using both methods.
Total RNA was isolated from human cell lines and primary cells using TriZOL (Invitrogen). TaqMan was carried out in a 25 μl reaction containing 25 ng of total RNA, 0.6 μM each of gene-specific forward and reverse primers and 0.2 μM of gene-specific fluorescence probe. […] Gene-specific PCR products were measured using an ABI PRISM 7700 Sequence Detection System following the manufacturer's instruction (PE Corp.).

[2] = target: T1, TNF-gamma-beta (Homo sapiens, UniProt O95150); assay: Inhibition of TNF-gamma-beta activation of NF-κB in 293T cells; assay type: cell-based
T1 construct: made in house; host or cells: E. coli (untagged) or 293T (FLAG-tagged)
T1 sequence (O95150 72-251): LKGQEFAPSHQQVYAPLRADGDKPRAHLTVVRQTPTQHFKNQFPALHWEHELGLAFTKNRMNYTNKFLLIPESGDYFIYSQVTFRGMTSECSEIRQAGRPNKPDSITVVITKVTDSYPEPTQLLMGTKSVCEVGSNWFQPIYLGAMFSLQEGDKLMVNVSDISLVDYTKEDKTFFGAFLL
Description: To avoid spontaneous apoptosis or NF-κB activation accompanied with DR3 overexpression, a limited amount of DR3-expression DNA that by itself minimally activated these pathways was used.
293T cells were transiently transfected using LipofectAMINE and PLUS reagents according to the manufacturer's instruction (Invitrogen). For reporter assays, 293T cells, at 5×10^5 cells/well, were seeded in 6-well plates and transfected with a total of 1 microgram of DNA. pC4 DNA was used as filler DNA. Conditioned supernatant was collected 24 hr post-transfection and assayed for secreted alkaline phosphatase (SEAP) activity using the Phospha-Light™ chemiluminescent reporter gene assay system (Tropix). pCMV-lacZ was used as internal control for transfection efficiency normalization.

[3] = target: T2, full length TNF-gamma-beta on the cell surface (HEK293F stable transfectants; transfected cells) (human, UniProt O95150 1-251); assay: flow cytometry on HEK293F cells expressing full length TNF-gamma-beta
T2 construct: also called TNF-gamma-beta expressing cells
T2 sequence: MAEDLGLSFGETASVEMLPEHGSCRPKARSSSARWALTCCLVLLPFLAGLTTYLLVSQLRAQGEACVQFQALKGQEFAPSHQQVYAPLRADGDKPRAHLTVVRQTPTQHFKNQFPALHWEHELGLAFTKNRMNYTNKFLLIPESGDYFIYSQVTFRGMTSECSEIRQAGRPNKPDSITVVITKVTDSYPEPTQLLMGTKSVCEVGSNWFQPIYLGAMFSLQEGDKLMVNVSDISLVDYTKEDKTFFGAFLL
Description: TR6 has been previously described as a decoy receptor (Pitti et al., Nature 396:699-703 (1998); Yu et al., J. Biol. Chem. 274:13733-6 (1999)) capable of competing with Fas and HveA for binding of FasL and LIGHT, respectively.
One million cells, in 0.1 ml of FACS buffer (PBS, 0.1% BSA, 0.1% NaN₃), were incubated with 0.1-1 microgram of protein or antibody at RT for 15 min. The cells were washed with 3 ml of FACS buffer, reacted with biotinylated primary antibody, and stained with PE-conjugated secondary antibody at RT for 15 min. Cells were then washed again, resuspended in 0.5 microgram/ml of propidium iodide, and live cells were gated and analyzed on a FACScan using the CellQuest software (BD Biosciences).

[4] = target: T3, TNF-gamma-beta (Homo sapiens, UniProt O95150); assay: Coimmunoprecipitation of TNF-gamma-beta by TNFR-Fc proteins; assay type: binding
T3 construct: made in house; host or cells: 293T cells, transient transfection
T3 sequence (O95150 72-251 limits assumed): T1 sequence (O95150 72-251)
From the text: The beads were then precipitated and washed extensively with PBST buffer (PBS, 0.5% Triton X-100) before boiled in SDS-sample buffer. Proteins were resolved on 4-20% Tris-Glycine gels (NOVEX), transferred to nitrocellulose membranes, and blotted with anti-Flag M2 monoclonal antibody (1 microgram/ml, Sigma) andhorseradish peroxidase (HRP)-conjugated goat anti-mouse IgG antibody (0.5 microgram/ml).

[5] = system: CB6F1 mice; assay: Parent-into-F1 acute graft-versus-host (in vivo MLR) model; parameters: species or system mouse; conditions: 3 mg/kg/day i.v. for 5 days
Description: Briefly, CB6F1 mice were injected with 1.5×10^8 pooled spleen cells of C57BL/6 mice administered intravenously on day 0.
The F1 (CB6F1) of C57BL/6×BALB/c mice (H-2^bxd) were transfused intravenously with 1.5×10^8 spleen cells from C57BL/6 mice (H-2^b) on day 0. […] The spleens of the recipient F1 mice were harvested on day 5, weighed and single cell suspensions prepared for in vitro assays.
Splenocytes from normal and the transfused F1 mice were cultured in triplicate in 96-well flat-bottomed plates (4×10^5 cells/200 microliters/well) for 2-4 days. After removing 100 microliters of supernatant per well on the day of harvest, 10 microliters Alamar Blue (Biosource) was added to each well and the cells cultured for additional 4 h. The cell number in each well was assessed according to OD590 nm minus OD530 nm background, using a CytoFluor apparatus (PerSeptive Biosystems). Cytokines in the culture supernatant were measured with commercial ELISA kits from Endogen or R & D Systems following manufacturer's instructions.

With `CCCCCCCCCCCCCC(=O)O[C@@H]1[C@@H](C)[C@@]2(O)[C@@H](C=C(CO)C[C@]3(O)C(=O)C(C)=C[C@@H]23)[C@@H]2C(C)(C)[C@]12OC(C)=O` [PMA, reference compound] the “time of peak in expression of TNF-gamma-beta mRNA” value [1] was 6 h and the “TNF-gamma-beta mRNA level” value [1] was “rapidly induced high levels of TNF-gamma-beta mRNA”.

“TNFR1.Fc: Fc-fusion of TNFR1, control receptor [reference compound]” was tested, and the “inhibition of TNF-gamma-beta activation of NF-κB” value (“inhibition” below) [2] was “not able to inhibit” and the “inhibition” value ([2]; listed as TNFR1-Fc) was “but not by the addition of Fas-Fc or TNFR1-Fc”.

“bFGF: growth factor stimulus of HUVEC cells [reference compound]” was tested, and the “TNF-gamma-beta mRNA level” value [1] was “did not significantly affect the expression of TNF-gamma-beta”.

B1: IFNγ: cytokine stimulus of HUVEC cells (protein, UniProt P01579 24-161, looked up)
Interferon gamma: QDPYVKEAENLKKYFNAGHSDVADNGTLFLGILKNWKEESDRKIMQSQIVSFYFKLFKNFKDDQSIQKSVETIKEDMNVKFFNSNKKKRDDFEKLTNYSVTDLNVQRKAIHELIQVMAELSPAAKTGKRKRSQMLFRG
For B1, the “TNF-gamma-beta mRNA level” value [1] was “did not significantly affect the expression of TNF-gamma-beta”.

B2: Fc-fusion form of the extracellular domain of DcR2 (Fc fusion, UniProt Q9UBN6 56-211, looked up)
chain: ATIPRQDEVPQQTVAPQQQRRSLKEEECPAGSHRSEYTGACNPCTEGVDYTIASNNLPSCLLCTVCKSGQTNKSSCTTTRDTVCQCEKGSFQDKNSPEMCRTCRTGCPRGMVKVSNCTPRSDIKCKNESAASSTGKTPAAEETVTTILGMLASPYH
notes: extracellular domain; not shown: Fc part of the fusion
B2: no binding [3].

B3: Fc-fusion form of the extracellular domain of DcR1 (Fc fusion, UniProt O14798 26-221, looked up)
chain: ATTARQEEVPQQTVAPQQQRHSFKGEECPAGSHRSEHTGACNPCTEGVDYTNASNNEPSCFPCTVCKSDQKHKSSCTMTRDTVCQCKEGTFRNENSPEMCRKCSRCPSGEVQVSNCTSWDDIQCVEEFGANATVETPAAEETMNTSPGTPAPAAEETMNTSPGTPAPAAEETMTTSPGTPAPAAEETMTTSPGTPA
notes: as for B2
B3: no binding [3].

B4: TACI-Fc: extracellular domain of TACI (aa 1-159) fused to Fc of human IgG1 (protein)
chain: MSGLGRSRRGGRSRVDQEERFPQGLWTGVAMRSCPEEQYWDPLLGTCMSCKTICNHQSQRTCAAFCRSLSCRKEQGKFYDHLLRDCISCASICGQHPKQCAYFCENKLRSPVNLPPELRRQRSGEVENNSDNSGRYQGLEHRGSEASPALPGLKLSADQ
modifications: left off: a dimerising Fc or GST
notes: extracellular domain of TACI (aa 1-159) fused to Fc of human IgG1
In the case of B4, the “immunoprecipitation of TNF-gamma-beta” value [4] is reported as “could not immunoprecipitate FLAG-TNF-gamma-beta”.

B5: TNFR1-Fc (Fc fusion, UniProt P19438 30-211, looked up)
chain: LVPHLGDREKRDSVCPQGKYIHPQNNSICCTKCHKGTYLYNDCPGPGQDTDCRECESGSFTASENHLRHCLSCSKCRKEMGQVEISSCTVDRDTVCGCRKNQYRHYWSENLFQCFNCSLCLNGTVHLSCQEKQNTVCTCHAGFFLRENECVSCSNCKKSLECTKLCLPQIENVKGTEDSGTT
notes: extracellular domain; also called Fc-fusion form of the extracellular domain of TNFR1; not shown: Fc part of the fusion
B5: no binding [3].

B6: Fc-fusion form of the extracellular domain of RANK (Fc fusion, UniProt Q9Y6Q6 30-212, looked up)
chain: IAPPCTSEKHYEHLGRCCNKCEPGKYMSSKCTTTSDSVCLPCGPDEYLDSWNEEDKCLLHKVCDTGKALVAVVAGNSTTPRRCACTAGYHWSQDCECCRRNTECAPGLGAQHPLQLNKDTVCKPCLAGYFSDAFSSTDKCRPWTNCTFLGKRVEHHGTEKSDAVCSSSLPARKPPNEPHVYLP
notes: as for B2
B6: no binding [3].

B7: Fas-Fc: extracellular domain of Fas (aa 1-169) fused to Fc of human IgG1 (protein)
chain: QVTDINSKGLELRKTVTTVETQNLEGLHHDGQFCHKPCPPGERKARDCTVNGDEPDCVPCQEGKEYTDKAHFSSKCRRCRLCDEGHGLEVEINCTRTQNTKCRCKPNFFCNSTVCEHCDPCTKCEHGIIKECTLTSNTKCKEEG
modifications: left off: a dimerising Fc or GST
notes: extracellular domain of Fas (aa 1-169) fused to Fc of human IgG1
With B7 the “inhibition” value [2] was “but not by the addition of Fas-Fc or TNFR1-Fc” and the “immunoprecipitation of TNF-gamma-beta” value [4] was “could not immunoprecipitate FLAG-TNF-gamma-beta”.

B8: TL5: another TNF family ligand used here as a control (protein, UniProt O43557 83-240, looked up)
Tumor necrosis factor ligand …: LIQERRSHEVNPAAHLTGANSSLTGSGGPLLWETQLGLAFLRGLSYHDGALVVTKAGYYYIYSKVQLGGVGCPLGLASTITHGLYKRTPRYPEELELLVSQQSPCGRATSSSRVWWDSSFLGGVVHLEAGEKVVVRVLDERLVRLRDGTRSYFGAFMV
B8 was tested, and the “IL-2 production vs buffer group” value [5] was “neither TNF-gamma-beta nor TL5 show any significant effect”, the “IL-12 production vs buffer group” value [5] was “neither TNF-gamma-beta nor TL5 show any significant effect” and the “spleen weight vs buffer group” value [5] was “no statistically significant difference from buffer group”. For the same molecule, the “spontaneous (ex-vivo) splenocyte proliferation vs buffer group” value [5] was “no statistically significant difference from buffer group”, the “GM-CSF production vs buffer group” value ([5]; splenocytes) was “no statistically significant difference from buffer group” and the “INF-gamma production vs buffer group” value ([5]; splenocytes) was “no statistically significant difference from buffer group”.

B9: Fc-fusion form of the extracellular domain of AITR (Fc fusion, UniProt Q9Y5U5 26-162, looked up)
chain: QRPTGGPGCGPGRLLLGTGTDARCCRVHTTRCCRDYPGEECCSEWDCMCVQPEFHCGDPCCTTCRHHPCPPGQGVQSQGKFSFGFQCIDCASGTFSGGHEGHCKPWTDCTQFGFLTVFPGNKTHNAVCVPGSPPAEP
notes: as for B2
B9: no binding [3].

B10: IL-1α: cytokine stimulus of HUVEC cells (protein, UniProt P01583 113-271, looked up)
Interleukin-1 alpha: SAPFSFLSNVKYNFMRIIKYEFILNDALNQSIIRANDQYLTAAALHNLDEAVKFDMGAYKSSKDDAKITVILRISKTQLYVTAQDEDQPVLLKEMPEIPKTITGSETNLLFFWETHGTKNYFTSVAHPNLFIATKQDYWVCLAGGPPSITDFQILENQA
For B10, the “time of peak in expression of TNF-gamma-beta mRNA” value [1] was 6 h and the “TNF-gamma-beta mRNA level” value [1] was “rapidly induced high levels of TNF-gamma-beta mRNA”.

B11: Fc-fusion form of the extracellular domain of OX40 (Fc fusion, UniProt P43489 29-214, looked up)
chain: LHCVGDTYPSNDRCCHECRPGNGMVSRCSRSQNTVCRPCGPGFYNDVVSSKPCKPCTWCNLRSGSERKQLCTATQDTVCRCRAGTQPLDSYKPGVDCAPCPPGHFSPGDNQACKPWTNCTLAGKHTLQPASNSSDAICEDRDPPATQPQETQGPPARPITVQPTEAWPRTSQGPSTRPVEVPGGRA
notes: as for B2
B11: no binding [3].
